B1: TSN (parent)
chain: FLAAEQDIREEIRKVVQSLEQTAR
B2: BRF1 (parent)
chain: CTACGSVLEDNIIVSEVQFVESSG

Variants of: B1
Assay: protein stability index of a GFP-peptide fusion (GPS, HEK-293T) (PSI 1-6); higher = more stable
Details: c terminus: a fixed tail appended
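Also: lentivirally expressed fusions sorted by FACS into six bins by GFP to DsRed ratio, PSI derived from sequencing read proportions per bin multiplied by bin number.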

Variant	protein stability index
YLAAEQDIREEIRKVVQSLEQTAR [F1Y]	2.04
QLAAEQDIREEIRKVVQSLEQTAR [F1Q]	2.23
TLAAEQDIREEIRKVVQSLEQTAR [F1T]	2.72
PLAAEQDIREEIRKVVQSLEQTAR [F1P]	2.78
NLAAEQDIREEIRKVVQSLEQTAR [F1N]	3.17
CLAAEQDIREEIRKVVQSLEQTAR [F1C]	1.9
ILAAEQDIREEIRKVVQSLEQTAR [F1I]	2.51
MLAAEQDIREEIRKVVQSLEQTAR [F1M]	2.39
GLAAEQDIREEIRKVVQSLEQTAR [F1G]	2.26
ALAAEQDIREEIRKVVQSLEQTAR [F1A]	2.35
HLAAEQDIREEIRKVVQSLEQTAR [F1H]	2.5
ELAAEQDIREEIRKVVQSLEQTAR [F1E]	2.45
DLAAEQDIREEIRKVVQSLEQTAR [F1D]	2.49
KLAAEQDIREEIRKVVQSLEQTAR [F1K]	2.41
RLAAEQDIREEIRKVVQSLEQTAR [F1R]	2.79
WLAAEQDIREEIRKVVQSLEQTAR [F1W]	1.85
LLAAEQDIREEIRKVVQSLEQTAR [F1L]	2.36
VLAAEQDIREEIRKVVQSLEQTAR [F1V]	2.62
SLAAEQDIREEIRKVVQSLEQTAR [F1S]	2.51
FLPAEQDIREEIRKVVQSLEQTAR [A3P]	2.17
FLMAEQDIREEIRKVVQSLEQTAR [A3M]	1.72
FLVAEQDIREEIRKVVQSLEQTAR [A3V]	1.88

Variant	protein stability index
FLFAEQDIREEIRKVVQSLEQTAR [A3F]	2.02
FLIAEQDIREEIRKVVQSLEQTAR [A3I]	1.87
FLSAEQDIREEIRKVVQSLEQTAR [A3S]	2.5
FLWAEQDIREEIRKVVQSLEQTAR [A3W]	1.5
FLGAEQDIREEIRKVVQSLEQTAR [A3G]	1.87
FLQAEQDIREEIRKVVQSLEQTAR [A3Q]	1.73
FLNAEQDIREEIRKVVQSLEQTAR [A3N]	1.88
FLRAEQDIREEIRKVVQSLEQTAR [A3R]	2.56
FLLAEQDIREEIRKVVQSLEQTAR [A3L]	2.33
FLYAEQDIREEIRKVVQSLEQTAR [A3Y]	2.03
FLHAEQDIREEIRKVVQSLEQTAR [A3H]	2.1
FLTAEQDIREEIRKVVQSLEQTAR [A3T]	2
FLCAEQDIREEIRKVVQSLEQTAR [A3C]	1.36
FLDAEQDIREEIRKVVQSLEQTAR [A3D]	2.38
FLKAEQDIREEIRKVVQSLEQTAR [A3K]	2.13
FLEAEQDIREEIRKVVQSLEQTAR [A3E]	2.42
FSAAEQDIREEIRKVVQSLEQTAR [L2S]	1.91
FKAAEQDIREEIRKVVQSLEQTAR [L2K]	2.11
FWAAEQDIREEIRKVVQSLEQTAR [L2W]	2.02
FMAAEQDIREEIRKVVQSLEQTAR [L2M]	1.96
FDAAEQDIREEIRKVVQSLEQTAR [L2D]	1.73
FTAAEQDIREEIRKVVQSLEQTAR [L2T]	2.08

Variant	protein stability index
FQAAEQDIREEIRKVVQSLEQTAR [L2Q]	2.03
FFAAEQDIREEIRKVVQSLEQTAR [L2F]	1.71
FEAAEQDIREEIRKVVQSLEQTAR [L2E]	1.68
FRAAEQDIREEIRKVVQSLEQTAR [L2R]	2.4
FCAAEQDIREEIRKVVQSLEQTAR [L2C]	1.82
FPAAEQDIREEIRKVVQSLEQTAR [L2P]	2.68
FNAAEQDIREEIRKVVQSLEQTAR [L2N]	2.38
FHAAEQDIREEIRKVVQSLEQTAR [L2H]	1.75
FAAAEQDIREEIRKVVQSLEQTAR [L2A]	2.19
FVAAEQDIREEIRKVVQSLEQTAR [L2V]	1.91
FYAAEQDIREEIRKVVQSLEQTAR [L2Y]	1.85
FGAAEQDIREEIRKVVQSLEQTAR [L2G]	3.19
FIAAEQDIREEIRKVVQSLEQTAR [L2I]	1.66
FLAAYQDIREEIRKVVQSLEQTAR [E5Y]	1.76
FLAADQDIREEIRKVVQSLEQTAR [E5D]	2.27
FLAACQDIREEIRKVVQSLEQTAR [E5C]	2.25
FLAAWQDIREEIRKVVQSLEQTAR [E5W]	2.58
FLAAFQDIREEIRKVVQSLEQTAR [E5F]	2.5
FLAASQDIREEIRKVVQSLEQTAR [E5S]	2.52
FLAAPQDIREEIRKVVQSLEQTAR [E5P]	3
FLAAAQDIREEIRKVVQSLEQTAR [E5A]	2.69
FLAAVQDIREEIRKVVQSLEQTAR [E5V]	3.62

Variant	protein stability index
FLAANQDIREEIRKVVQSLEQTAR [E5N]	3.04
FLAAMQDIREEIRKVVQSLEQTAR [E5M]	2.79
FLAAQQDIREEIRKVVQSLEQTAR [E5Q]	2.71
FLAATQDIREEIRKVVQSLEQTAR [E5T]	3.32
FLAARQDIREEIRKVVQSLEQTAR [E5R]	2.66
FLAAGQDIREEIRKVVQSLEQTAR [E5G]	2.87
FLAAHQDIREEIRKVVQSLEQTAR [E5H]	2.26
FLAALQDIREEIRKVVQSLEQTAR [E5L]	3.1
FLAAIQDIREEIRKVVQSLEQTAR [E5I]	2.81
FLAMEQDIREEIRKVVQSLEQTAR [A4M]	1.69
FLAKEQDIREEIRKVVQSLEQTAR [A4K]	1.71
FLAVEQDIREEIRKVVQSLEQTAR [A4V]	1.93
FLATEQDIREEIRKVVQSLEQTAR [A4T]	2.13
FLAIEQDIREEIRKVVQSLEQTAR [A4I]	2.08
FLADEQDIREEIRKVVQSLEQTAR [A4D]	2.11
FLAYEQDIREEIRKVVQSLEQTAR [A4Y]	2.03
FLAGEQDIREEIRKVVQSLEQTAR [A4G]	2.04
FLASEQDIREEIRKVVQSLEQTAR [A4S]	2.54
FLAPEQDIREEIRKVVQSLEQTAR [A4P]	2.01
FLALEQDIREEIRKVVQSLEQTAR [A4L]	2.29
FLAREQDIREEIRKVVQSLEQTAR [A4R]	1.73
FLAQEQDIREEIRKVVQSLEQTAR [A4Q]	2.09

Variant	protein stability index
FLANEQDIREEIRKVVQSLEQTAR [A4N]	1.52
FLAFEQDIREEIRKVVQSLEQTAR [A4F]	2.71
FLAHEQDIREEIRKVVQSLEQTAR [A4H]	1.57
FLAEEQDIREEIRKVVQSLEQTAR [A4E]	2.51
FLAAETDIREEIRKVVQSLEQTAR [Q6T]	1.46
FLAAEHDIREEIRKVVQSLEQTAR [Q6H]	1.63
FLAAEFDIREEIRKVVQSLEQTAR [Q6F]	1.87
FLAAESDIREEIRKVVQSLEQTAR [Q6S]	2.25
FLAAEPDIREEIRKVVQSLEQTAR [Q6P]	2.85
FLAAERDIREEIRKVVQSLEQTAR [Q6R]	2.53
FLAAEIDIREEIRKVVQSLEQTAR [Q6I]	2.1
FLAAECDIREEIRKVVQSLEQTAR [Q6C]	1.65
FLAAEMDIREEIRKVVQSLEQTAR [Q6M]	1.86
FLAAEADIREEIRKVVQSLEQTAR [Q6A]	2.01
FLAAENDIREEIRKVVQSLEQTAR [Q6N]	1.91
FLAAELDIREEIRKVVQSLEQTAR [Q6L]	1.99
FLAAEEDIREEIRKVVQSLEQTAR [Q6E]	2.85
FLAAEGDIREEIRKVVQSLEQTAR [Q6G]	1.84
FLAAEKDIREEIRKVVQSLEQTAR [Q6K]	1.78
FLAAEDDIREEIRKVVQSLEQTAR [Q6D]	1.85

Variants of: B2
Assay: as above
Details: c terminus: a fixed tail appended

Variant	protein stability index
CTACGSVLEDNIIVSEVQFVKSSG [E21K]	2.94
CTACGSVLEDNIIVSEVQFVASSG [E21A]	2.58
CTACGSVLEDNIIVSEVQFVFSSG [E21F]	1.87
CTACGSVLEDNIIVSEVQFVGSSG [E21G]	3.58
CTACGSVLEDNIIVSEVQFVPSSG [E21P]	3.38
CTACGSVLEDNIIVSEVQFVRSSG [E21R]	3.53
CTACGSVLEDNIIVSEVQFVSSSG [E21S]	2.54
CTACGSVLEDNIIVSEVQFVDSSG [E21D]	3.19
CTACGSVLEDNIIVSEVQFVISSG [E21I]	2.28
CTACGSVLEDNIIVSEVQFVTSSG [E21T]	2.34
CTACGSVLEDNIIVSEVQFVHSSG [E21H]	2.88
CTACGSVLEDNIIVSEVQFVMSSG [E21M]	2.4
CTACGSVLEDNIIVSEVQFVCSSG [E21C]	3.27
CTACGSVLEDNIIVSEVQFVYSSG [E21Y]	1.77
CTACGSVLEDNIIVSEVQFVVSSG [E21V]	2.82
CTACGSVLEDNIIVSEVQFVLSSG [E21L]	2.7
CTACGSVLEDNIIVSEVQFVWSSG [E21W]	2.05
CTACGSVLEDNIIVSEVQFVQSSG [E21Q]	3.02
CTACGSVLEDNIIVSEVQFVNSSG [E21N]	3.51
CTACGSVLEDNIIVSEVQFVECSG [S22C]	1.88
CTACGSVLEDNIIVSEVQFVEKSG [S22K]	3.81
CTACGSVLEDNIIVSEVQFVEASG [S22A]	3.73
CTACGSVLEDNIIVSEVQFVEMSG [S22M]	2.44
CTACGSVLEDNIIVSEVQFVEPSG [S22P]	3.39
CTACGSVLEDNIIVSEVQFVETSG [S22T]	2.33
CTACGSVLEDNIIVSEVQFVERSG [S22R]	2.18
CTACGSVLEDNIIVSEVQFVEYSG [S22Y]	2.38

Variant	protein stability index
CTACGSVLEDNIIVSEVQFVEISG [S22I]	1.52
CTACGSVLEDNIIVSEVQFVEESG [S22E]	3.83
CTACGSVLEDNIIVSEVQFVEGSG [S22G]	2.97
CTACGSVLEDNIIVSEVQFVEHSG [S22H]	3.06
CTACGSVLEDNIIVSEVQFVEFSG [S22F]	2.32
CTACGSVLEDNIIVSEVQFVEVSG [S22V]	2.75
CTACGSVLEDNIIVSEVQFVELSG [S22L]	2.09
CTACGSVLEDNIIVSEVQFVEQSG [S22Q]	3.38
CTACGSVLEDNIIVSEVQFVEWSG [S22W]	2.66
CTACGSVLEDNIIVSEVQFVENSG [S22N]	3.07
CTACGSVLEDNIIVSEVQFVEDSG [S22D]	3.7
CTACGSVLEDNIIVSEVQFVESSW [G24W]	2.09
CTACGSVLEDNIIVSEVQFVESSN [G24N]	3.01
CTACGSVLEDNIIVSEVQFVESSA [G24A]	3.67
CTACGSVLEDNIIVSEVQFVESSQ [G24Q]	2.95
CTACGSVLEDNIIVSEVQFVESSP [G24P]	3.28
CTACGSVLEDNIIVSEVQFVESSH [G24H]	2.25
CTACGSVLEDNIIVSEVQFVESSM [G24M]	3.13
CTACGSVLEDNIIVSEVQFVESSV [G24V]	2.45
CTACGSVLEDNIIVSEVQFVESSC [G24C]	3.09
CTACGSVLEDNIIVSEVQFVESSR [G24R]	2.64
CTACGSVLEDNIIVSEVQFVESSY [G24Y]	2.89
CTACGSVLEDNIIVSEVQFVESSF [G24F]	2.03
CTACGSVLEDNIIVSEVQFVESSD [G24D]	3.38
CTACGSVLEDNIIVSEVQFVESSE [G24E]	3.58
CTACGSVLEDNIIVSEVQFVESSK [G24K]	3.25
CTACGSVLEDNIIVSEVQFVESSI [G24I]	3.06

Variant	protein stability index
CTACGSVLEDNIIVSEVQFVESSS [G24S]	3.08
CTACGSVLEDNIIVSEVQFVESSL [G24L]	3.01
CTACGSVLEDNIIVSEVQFVESFG [S23F]	2.42
CTACGSVLEDNIIVSEVQFVESKG [S23K]	4.04
CTACGSVLEDNIIVSEVQFVESYG [S23Y]	2.51
CTACGSVLEDNIIVSEVQFVESMG [S23M]	2.81
CTACGSVLEDNIIVSEVQFVESQG [S23Q]	3.55
CTACGSVLEDNIIVSEVQFVESEG [S23E]	2.91
CTACGSVLEDNIIVSEVQFVESIG [S23I]	2.88
CTACGSVLEDNIIVSEVQFVESNG [S23N]	3.15
CTACGSVLEDNIIVSEVQFVESHG [S23H]	3.24
CTACGSVLEDNIIVSEVQFVESVG [S23V]	2.63
CTACGSVLEDNIIVSEVQFVESCG [S23C]	2.9
CTACGSVLEDNIIVSEVQFVESTG [S23T]	3.17
CTACGSVLEDNIIVSEVQFVESWG [S23W]	2.53
CTACGSVLEDNIIVSEVQFVESAG [S23A]	3.14
CTACGSVLEDNIIVSEVQFVESLG [S23L]	3.03
CTACGSVLEDNIIVSEVQFVESPG [S23P]	2.72
CTACGSVLEDNIIVSEVQFPESSG [V20P]	3.48
CTACGSVLEDNIIVSEVQFRESSG [V20R]	3.18
CTACGSVLEDNIIVSEVQFMESSG [V20M]	2.55
CTACGSVLEDNIIVSEVQFNESSG [V20N]	2.94
CTACGSVLEDNIIVSEVQFSESSG [V20S]	4.23
CTACGSVLEDNIIVSEVQFTESSG [V20T]	3.58
CTACGSVLEDNIIVSEVQFQESSG [V20Q]	3.35
CTACGSVLEDNIIVSEVQFYESSG [V20Y]	2.44
